Results taken from the supplement of paper PMC9112550, “Optimization of the antimicrobial peptide Bac7 by deep mutational scanning” (BMC Biology, 2022).

Test system: Escherichia coli TOP10
Assay: shrunken log2 fold change of peptide-encoding DNA abundance (4.5 h post-induction vs induction); higher = less antimicrobial activity (less host growth inhibition)
Conditions: time post-induction: 4.5 h; library: site-saturation at positions 5, 18, 19, 20
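Further: peptides expressed intracellularly from a pBAD plasmid library in pooled LB shake-flask culture, induced with 0.3% L-arabinose, DNA abundance read by NGS, three biological replicates, DESeq2 with apeglm shrinkage.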

Question: Which “shrunken log2 fold change” value does the source give for RRIRQRPPRLPRPRPRPSPLPRP here?
Answer: The value was 0.0509.

Question: Which “shrunken log2 fold change” value does the source give for RRIRQRPPRLPRPRPRPSQMPRP here?
Answer: Its value is -0.0442.

Question: How did the “shrunken log2 fold change” value turn out when RRIRQRPPRLPRPRPRPSRKPRP was run?
Answer: Its value is 0.111.

Question: How did the “shrunken log2 fold change” value turn out when RRIRQRPPRLPRPRPRPSRLPRP was run?
Answer: Its value is 0.101.

Question: RRIRQRPPRLPRPRPRPSRTPRP was tested. Which “shrunken log2 fold change” value did it give?
Answer: Its value is -0.29.

Question: RRIRQRPPRLPRPRPRPSSNPRP was tested. Which “shrunken log2 fold change” value did it give?
Answer: The value was -0.222.

Question: With RRIRQRPPRLPRPRPRPSTGPRP as the sequence, how does the “shrunken log2 fold change” value read?
Answer: Its value is -0.0811.

Question: RRIRQRPPRLPRPRPRPSTIPRP was tested. Which “shrunken log2 fold change” value did it give?
Answer: Its value is -0.0567.

Question: RRIRQRPPRLPRPRPRPSVCPRP was tested. Which “shrunken log2 fold change” value did it give?
Answer: The value was -0.14.

Question: How did the “shrunken log2 fold change” value turn out when RRIRQRPPRLPRPRPRPSVGPRP was run?
Answer: Its value is 0.119.

Question: How did the “shrunken log2 fold change” value turn out when RRIRQRPPRLPRPRPRPSVLPRP was run?
Answer: Its value is -0.0352.

Question: With RRIRQRPPRLPRPRPRPSVTPRP as the sequence, how does the “shrunken log2 fold change” value read?
Answer: Its value is -0.0462.

Question: For RRIRQRPPRLPRPRPRPSWTPRP, which “shrunken log2 fold change” value is on record?
Answer: Its value is -0.15.

Question: How did the “shrunken log2 fold change” value turn out when RRIRQRPPRLPRPRPRPTADPRP was run?
Answer: The value was 0.392.

Question: RRIRQRPPRLPRPRPRPTAMPRP was tested. Which “shrunken log2 fold change” value did it give?
Answer: The value was 0.0174.

Question: For RRIRQRPPRLPRPRPRPTAQPRP, which “shrunken log2 fold change” value is on record?
Answer: The value was 0.0588.

Question: With RRIRQRPPRLPRPRPRPTAYPRP as the sequence, how does the “shrunken log2 fold change” value read?
Answer: Its value is 0.14.

Question: Which “shrunken log2 fold change” value does the source give for RRIRQRPPRLPRPRPRPTCFPRP here?
Answer: Its value is 0.132.

Question: For RRIRQRPPRLPRPRPRPTCGPRP, which “shrunken log2 fold change” value is on record?
Answer: The value was 0.285.

Question: Which “shrunken log2 fold change” value does the source give for RRIRQRPPRLPRPRPRPTDDPRP here?
Answer: Its value is -0.0703.

Question: Which “shrunken log2 fold change” value does the source give for RRIRQRPPRLPRPRPRPTECPRP here?
Answer: The value was 0.0119.

Question: For RRIRQRPPRLPRPRPRPTEGPRP, which “shrunken log2 fold change” value is on record?
Answer: Its value is -0.0332.

Question: How did the “shrunken log2 fold change” value turn out when RRIRQRPPRLPRPRPRPTEMPRP was run?
Answer: Its value is -0.149.

Question: With RRIRQRPPRLPRPRPRPTFQPRP as the sequence, how does the “shrunken log2 fold change” value read?
Answer: Its value is 0.00826.

Question: With RRIRQRPPRLPRPRPRPTHWPRP as the sequence, how does the “shrunken log2 fold change” value read?
Answer: The value was 0.427.

Question: Which “shrunken log2 fold change” value does the source give for RRIRQRPPRLPRPRPRPTIEPRP here?
Answer: Its value is 0.0419.

Question: With RRIRQRPPRLPRPRPRPTIFPRP as the sequence, how does the “shrunken log2 fold change” value read?
Answer: The value was -0.0347.

Question: Which “shrunken log2 fold change” value does the source give for RRIRQRPPRLPRPRPRPTIRPRP here?
Answer: Its value is -0.219.

Question: How did the “shrunken log2 fold change” value turn out when RRIRQRPPRLPRPRPRPTKRPRP was run?
Answer: The value was 0.254.

Question: RRIRQRPPRLPRPRPRPTLRPRP was tested. Which “shrunken log2 fold change” value did it give?
Answer: The value was -0.0246.

Question: RRIRQRPPRLPRPRPRPTLVPRP was tested. Which “shrunken log2 fold change” value did it give?
Answer: The value was 0.186.

Question: How did the “shrunken log2 fold change” value turn out when RRIRQRPPRLPRPRPRPTMEPRP was run?
Answer: Its value is -0.0535.

Question: Which “shrunken log2 fold change” value does the source give for RRIRQRPPRLPRPRPRPTMSPRP here?
Answer: Its value is 0.0272.

Question: RRIRQRPPRLPRPRPRPTNNPRP was tested. Which “shrunken log2 fold change” value did it give?
Answer: The value was -0.547.

Question: How did the “shrunken log2 fold change” value turn out when RRIRQRPPRLPRPRPRPTNVPRP was run?
Answer: The value was -0.302.

Question: With RRIRQRPPRLPRPRPRPTPTPRP as the sequence, how does the “shrunken log2 fold change” value read?
Answer: The value was 0.336.

Question: Which “shrunken log2 fold change” value does the source give for RRIRQRPPRLPRPRPRPTPWPRP here?
Answer: Its value is 0.619.

Question: With RRIRQRPPRLPRPRPRPTQCPRP as the sequence, how does the “shrunken log2 fold change” value read?
Answer: The value was -0.343.

Question: For RRIRQRPPRLPRPRPRPTQGPRP, which “shrunken log2 fold change” value is on record?
Answer: The value was 2.34.

Question: For RRIRQRPPRLPRPRPRPTQLPRP, which “shrunken log2 fold change” value is on record?
Answer: Its value is 0.375.

Question: For RRIRQRPPRLPRPRPRPTQTPRP, which “shrunken log2 fold change” value is on record?
Answer: The value was -0.00783.

Question: With RRIRQRPPRLPRPRPRPTSVPRP as the sequence, how does the “shrunken log2 fold change” value read?
Answer: Its value is 0.0377.

Question: For RRIRQRPPRLPRPRPRPTTGPRP, which “shrunken log2 fold change” value is on record?
Answer: Its value is 0.0143.

Question: For RRIRQRPPRLPRPRPRPTTLPRP, which “shrunken log2 fold change” value is on record?
Answer: Its value is -0.196.

Question: RRIRQRPPRLPRPRPRPTTYPRP was tested. Which “shrunken log2 fold change” value did it give?
Answer: Its value is -0.282.

Question: For RRIRQRPPRLPRPRPRPTYAPRP, which “shrunken log2 fold change” value is on record?
Answer: Its value is -0.0832.

Question: How did the “shrunken log2 fold change” value turn out when RRIRQRPPRLPRPRPRPTYNPRP was run?
Answer: Its value is -0.591.

Question: For RRIRQRPPRLPRPRPRPTYRPRP, which “shrunken log2 fold change” value is on record?
Answer: The value was 0.06.

Question: RRIRQRPPRLPRPRPRPVCHPRP was tested. Which “shrunken log2 fold change” value did it give?
Answer: Its value is -0.13.

Question: For RRIRQRPPRLPRPRPRPVEHPRP, which “shrunken log2 fold change” value is on record?
Answer: The value was -0.00992.

Question: RRIRQRPPRLPRPRPRPVFHPRP was tested. Which “shrunken log2 fold change” value did it give?
Answer: The value was -0.107.

Question: For RRIRQRPPRLPRPRPRPVGFPRP, which “shrunken log2 fold change” value is on record?
Answer: Its value is 0.00249.

Question: RRIRQRPPRLPRPRPRPVGVPRP was tested. Which “shrunken log2 fold change” value did it give?
Answer: Its value is 0.475.

Question: Which “shrunken log2 fold change” value does the source give for RRIRQRPPRLPRPRPRPVHNPRP here?
Answer: Its value is -0.121.

Question: RRIRQRPPRLPRPRPRPVKEPRP was tested. Which “shrunken log2 fold change” value did it give?
Answer: Its value is -0.0231.

Question: For RRIRQRPPRLPRPRPRPVKKPRP, which “shrunken log2 fold change” value is on record?
Answer: Its value is -0.0152.

Question: With RRIRQRPPRLPRPRPRPVLWPRP as the sequence, how does the “shrunken log2 fold change” value read?
Answer: The value was 0.193.

Question: RRIRQRPPRLPRPRPRPVMCPRP was tested. Which “shrunken log2 fold change” value did it give?
Answer: Its value is -0.119.

Question: RRIRQRPPRLPRPRPRPVMVPRP was tested. Which “shrunken log2 fold change” value did it give?
Answer: The value was 0.11.

Question: Which “shrunken log2 fold change” value does the source give for RRIRQRPPRLPRPRPRPVNAPRP here?
Answer: Its value is 0.00432.

Question: For RRIRQRPPRLPRPRPRPVNQPRP, which “shrunken log2 fold change” value is on record?
Answer: The value was -0.0686.

Question: Which “shrunken log2 fold change” value does the source give for RRIRQRPPRLPRPRPRPVNRPRP here?
Answer: Its value is 0.00086.

Question: RRIRQRPPRLPRPRPRPVPTPRP was tested. Which “shrunken log2 fold change” value did it give?
Answer: The value was 0.0766.

Question: How did the “shrunken log2 fold change” value turn out when RRIRQRPPRLPRPRPRPVREPRP was run?
Answer: Its value is -0.00762.

Question: For RRIRQRPPRLPRPRPRPVSAPRP, which “shrunken log2 fold change” value is on record?
Answer: The value was 0.104.

Question: How did the “shrunken log2 fold change” value turn out when RRIRQRPPRLPRPRPRPVSRPRP was run?
Answer: Its value is -0.00586.

Question: How did the “shrunken log2 fold change” value turn out when RRIRQRPPRLPRPRPRPVSYPRP was run?
Answer: The value was 0.0822.

Question: For RRIRQRPPRLPRPRPRPVTFPRP, which “shrunken log2 fold change” value is on record?
Answer: Its value is -0.0496.

Question: RRIRQRPPRLPRPRPRPVTPPRP was tested. Which “shrunken log2 fold change” value did it give?
Answer: The value was -0.00477.

Question: With RRIRQRPPRLPRPRPRPVTVPRP as the sequence, how does the “shrunken log2 fold change” value read?
Answer: Its value is 0.153.

Question: For RRIRQRPPRLPRPRPRPVWAPRP, which “shrunken log2 fold change” value is on record?
Answer: Its value is -0.468.

Question: With RRIRQRPPRLPRPRPRPVWYPRP as the sequence, how does the “shrunken log2 fold change” value read?
Answer: The value was -0.254.

Question: Which “shrunken log2 fold change” value does the source give for RRIRQRPPRLPRPRPRPWCEPRP here?
Answer: Its value is -0.105.

Question: RRIRQRPPRLPRPRPRPWDGPRP was tested. Which “shrunken log2 fold change” value did it give?
Answer: Its value is 0.199.

Question: For RRIRQRPPRLPRPRPRPWDVPRP, which “shrunken log2 fold change” value is on record?
Answer: Its value is -0.0187.
